In article PMC6511015 (Proceedings of the National Academy of Sciences of the …, 2019):
Where two headings read alike, the source gives them in different places.

Key:
[1] = biological target: the molecule itself; assay: crystal structure
[2] = biological target: the molecule itself

Protein | stoichiometry N [1] | stoichiometry N [2]
Escherichia coli dGTPase, wild type (enzyme) MAQIDFRKKINWHRRYRSPQGVKTEHEILRIFESDRGRIINSPAIRRLQQKTQVFPLERNAAVRTRLTHSMEVQQVGRYIAKEILSRLKELKLLEAYGLDELTGPFESIVEMSCLMHDIGNPPFGHFGEAAINDWFRQRLHPEDAESQPLTDDRCSVAALRLRDGEEPLNELRRKIRQDLCHFEGNAQGIRLVHTLMRMNLTWAQVGGILKYTRPAWWRGETPETHHYLMKKPGYYLSEEAYIARLRKELNLALYSRFPLTWIMEAADDISYCVADLEDAVEKRIFTVEQLYHHLHEAWGQHEKGSLFSLVVENAWEKSRSNSLSRSTEDQFFMYLRVNTLNKLVPYAAQRFIDNLPAIFAGTFNHALLEDASECSDLLKLYKNVAVKHVFSHPDVERLELQGYRVISGLLEIYRPLLSLSLSDFTELVEKERVKRFPIESRLFHKLSTRHRLAYVEAVSKLPSDSPEFPLWEYYYRCRLLQDYISGMTDLYAWDEYRRLMAVEQ | 6 | –
Escherichia coli dGTPase E129A (enzyme) MAQIDFRKKINWHRRYRSPQGVKTEHEILRIFESDRGRIINSPAIRRLQQKTQVFPLERNAAVRTRLTHSMEVQQVGRYIAKEILSRLKELKLLEAYGLDELTGPFESIVEMSCLMHDIGNPPFGHFGAAAINDWFRQRLHPEDAESQPLTDDRCSVAALRLRDGEEPLNELRRKIRQDLCHFEGNAQGIRLVHTLMRMNLTWAQVGGILKYTRPAWWRGETPETHHYLMKKPGYYLSEEAYIARLRKELNLALYSRFPLTWIMEAADDISYCVADLEDAVEKRIFTVEQLYHHLHEAWGQHEKGSLFSLVVENAWEKSRSNSLSRSTEDQFFMYLRVNTLNKLVPYAAQRFIDNLPAIFAGTFNHALLEDASECSDLLKLYKNVAVKHVFSHPDVERLELQGYRVISGLLEIYRPLLSLSLSDFTELVEKERVKRFPIESRLFHKLSTRHRLAYVEAVSKLPSDSPEFPLWEYYYRCRLLQDYISGMTDLYAWDEYRRLMAVEQ | – | 6
Escherichia coli dGTPase Y272A (enzyme) MAQIDFRKKINWHRRYRSPQGVKTEHEILRIFESDRGRIINSPAIRRLQQKTQVFPLERNAAVRTRLTHSMEVQQVGRYIAKEILSRLKELKLLEAYGLDELTGPFESIVEMSCLMHDIGNPPFGHFGEAAINDWFRQRLHPEDAESQPLTDDRCSVAALRLRDGEEPLNELRRKIRQDLCHFEGNAQGIRLVHTLMRMNLTWAQVGGILKYTRPAWWRGETPETHHYLMKKPGYYLSEEAYIARLRKELNLALYSRFPLTWIMEAADDISACVADLEDAVEKRIFTVEQLYHHLHEAWGQHEKGSLFSLVVENAWEKSRSNSLSRSTEDQFFMYLRVNTLNKLVPYAAQRFIDNLPAIFAGTFNHALLEDASECSDLLKLYKNVAVKHVFSHPDVERLELQGYRVISGLLEIYRPLLSLSLSDFTELVEKERVKRFPIESRLFHKLSTRHRLAYVEAVSKLPSDSPEFPLWEYYYRCRLLQDYISGMTDLYAWDEYRRLMAVEQ | – | 6
Escherichia coli dGTPase H126A (enzyme) MAQIDFRKKINWHRRYRSPQGVKTEHEILRIFESDRGRIINSPAIRRLQQKTQVFPLERNAAVRTRLTHSMEVQQVGRYIAKEILSRLKELKLLEAYGLDELTGPFESIVEMSCLMHDIGNPPFGAFGEAAINDWFRQRLHPEDAESQPLTDDRCSVAALRLRDGEEPLNELRRKIRQDLCHFEGNAQGIRLVHTLMRMNLTWAQVGGILKYTRPAWWRGETPETHHYLMKKPGYYLSEEAYIARLRKELNLALYSRFPLTWIMEAADDISYCVADLEDAVEKRIFTVEQLYHHLHEAWGQHEKGSLFSLVVENAWEKSRSNSLSRSTEDQFFMYLRVNTLNKLVPYAAQRFIDNLPAIFAGTFNHALLEDASECSDLLKLYKNVAVKHVFSHPDVERLELQGYRVISGLLEIYRPLLSLSLSDFTELVEKERVKRFPIESRLFHKLSTRHRLAYVEAVSKLPSDSPEFPLWEYYYRCRLLQDYISGMTDLYAWDEYRRLMAVEQ | – | 6
